{
  "source": "paper PMC9458432",
  "about": "(Nucleic Acids Research, 2022)",
  "molecules": {"B1": {"name": "TMR-cdk5 (dsDNA)", "DNA 1": "CGTCGGTGACTCAAAACAC", "DNA 2": "GTGTTTTGAGTCACCGACG"}, "B2": {"name": "BIO-cdk5 (dsDNA)", "DNA 1": "CGTCGGTGACTCAAAACAC", "DNA 2": "GTGTTTTGAGTCACCGACG"}},
  "key": {"ΔFOSB Cys172Ser homomers": {"target": "T1, ΔFOSB Cys172Ser homomers (Mus musculus, UniProt P13346, C172S)", "T1 sequence (P13346 2-237 isoform P13346-2 C172S)": "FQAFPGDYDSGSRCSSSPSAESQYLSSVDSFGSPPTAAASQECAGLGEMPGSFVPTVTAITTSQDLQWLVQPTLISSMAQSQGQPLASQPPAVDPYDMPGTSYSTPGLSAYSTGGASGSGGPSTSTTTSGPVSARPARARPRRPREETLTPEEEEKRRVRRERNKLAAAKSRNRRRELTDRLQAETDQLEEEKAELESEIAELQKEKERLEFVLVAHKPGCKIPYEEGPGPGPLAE", "experiment": "FP dose-response against ΔFOSB Cys172Ser homomers", "assay_type": "binding", "conditions": "50 nM TMR-cdk5, 280 nM protein, compound 0–200 μM"}, "[1]": {"target": "T2, ΔFOSB Cys172Ser/JUND heterodimers (Mus musculus, UniProt P13346+P15066, C172S)", "T2 sequence (P13346 2-237 isoform P13346-2 C172S)": "T1 sequence (P13346 2-237 isoform P13346-2 C172S)", "T2 sequence (P15066 2-341)": "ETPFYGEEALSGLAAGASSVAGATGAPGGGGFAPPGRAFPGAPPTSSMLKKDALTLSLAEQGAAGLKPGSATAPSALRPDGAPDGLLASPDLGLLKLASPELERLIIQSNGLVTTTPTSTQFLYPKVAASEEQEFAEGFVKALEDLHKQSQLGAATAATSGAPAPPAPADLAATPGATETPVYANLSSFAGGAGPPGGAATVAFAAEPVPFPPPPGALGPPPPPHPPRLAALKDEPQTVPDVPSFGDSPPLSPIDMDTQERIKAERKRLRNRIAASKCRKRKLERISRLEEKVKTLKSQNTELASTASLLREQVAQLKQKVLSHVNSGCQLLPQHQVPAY", "experiment": "FP dose-response against ΔFOSB Cys172Ser/JUND heterodimers", "assay_type": "binding", "conditions": "50 nM TMR-cdk5, 280 nM protein, compound 0–200 μM"}, "ΔFOSB (N(His)6-ΔFOSB)": {"target": "T3, ΔFOSB (N(His)6-ΔFOSB) (mouse, UniProt P13346-2 2-237)", "T3 sequence": "T1 sequence (P13346 2-237 isoform P13346-2 C172S) with S171C", "experiment": "fluorescence polarization"}, "ΔFOSB Cys172Trp": {"target": "T4, ΔFOSB Cys172Trp (mouse, UniProt P13346-2 2-237, C172W)", "T4 sequence": "T1 sequence (P13346 2-237 isoform P13346-2 C172S) with S171W", "experiment": "fluorescence polarization"}, "[2]": {"target": "T5, ΔFOSB (N(His)6-ΔFOSB);JUND (N(His)6-JUND) (mouse;mouse, UniProt P13346-2;P15066 2-237;2-341, |)", "T5 sequence 1": "T1 sequence (P13346 2-237 isoform P13346-2 C172S) with S171C", "T5 sequence 2": "T2 sequence (P15066 2-341)", "experiment": "fluorescence polarization"}, "[3]": {"target": "T5, ΔFOSB (N(His)6-ΔFOSB);JUND …", "experiment": "EMSA"}},
  "note": "Positions count from the first letter of the chain named.",
  "data": [
    {"molecule": "O=C(O)CCc1cc(C(=O)c2ccc(OC3CCCC3)cc2O)ccc1OCc1ccc2c(=O)[nH]oc2c1", "note": "[Compound T5224]", "values": [
      {"measurement": "Disruption of DNA binding to ΔFOSB Cys172Ser homomers", "setting": "ΔFOSB Cys172Ser homomers", "value": "similarly well as to the wild-type species"},
      {"measurement": "Disruption of DNA binding to ΔFOSB Cys172Ser/JUND heterodimers", "setting": "[1]", "value": "similarly well as to the wild-type species"}
    ]},
    {"molecule": "B1", "values": [
      {"measurement": "binding result", "setting": "ΔFOSB (N(His)6-ΔFOSB)", "value": "binds"},
      {"measurement": "binding result", "setting": "ΔFOSB Cys172Trp", "value": "binds"},
      {"measurement": "binding result", "setting": "[2]", "value": "binds"}
    ]},
    {"molecule": "B2", "values": [
      {"measurement": "binding result", "setting": "[3]", "value": "binds"}
    ]}
  ]
}
